In patent publication US20070086956A1, “Method for accelerating the rate of mucociliary clearance” (BAYER AKTIENGESELLSCHAFT, priority 1998, published 2007):
Entries after “also recorded” stand apart in the source; their conditions may differ. Like-named read-outs stand apart in the source and are kept apart here.

What was measured:
[1] = biological target: T1, human plasma kallikrein (Homo sapiens, UniProt P03952); test: Anti-protease activity before and after nebulization; type: biochemical
T1 construct: purchased Sigma (St. Louis, Mo.)
Experimental: The aim of this study was to assess the anti-protease activity of Bikunin (1-170) described in Example 17 following nebulization. All studies were performed with Bikunin formulated in phosphate buffered saline, pH 7.4 (137 mM NaCl, 3 mM KCl, 3 mM KH2PO4, 8 mM Na2HPO4, 0.02 g/L Tween 80).
Raindrop® Medication Nebulizer: Bikunin was aerosolized at concentrations of 1 and 3 mg/mL. The nebulizer cup was filled with 2.5 mL of Bikunin solution. Aerosolisation was performed at 7.35 L/min or 35 psi.
Collison Nebulizer: Bikunin was aerosolised at a concentration of 4.7 mg/mL. The nebulizer cup was filled with 2.5 mL of Bikunin solution. Aerosolisation was performed at 35 psi.
Aerosolised Bikunin was collected using a twin impinger (6.4 um mean aerodynamic particle cut-off size at 60 L/min through the system). The impinger works on the principle of liquid impingement and divided the aerosol into a non-respirable fraction (>6.4 um collected in Stage 1) and a respirable fraction (<6.4 um collected in Stage 2).
Bikunin activity was measured in vitro by its inhibition of human plasma kallikrein.

[2] = test system: human bronchial epithelial cell (HBE); conditions: cited from earlier work
[3] = test system: guinea pig trachea; test: Tracheal mucus velocity (TMV) in the guinea-pig; type: in vivo; conditions: 5 ug tracheal instillation; 1.5 to 2.5 hours following administration; FIG. 16(c)
Experimental: The aim of this study was to investigate the effect of the Kunitz family serine protease inhibitor Bikunin on guinea-pig tracheal mucus velocity 1.5 hours post treatment. This agent was delivered into the cephalad trachea by topical instillation. TMV was monitored 1.5 hours later for 60 mins. The procedure used in this Example is described in Newton et al. in “Cila, Mucus and Mucociliary Interactions,” Ed., Baum, G. L. et al., Marcel Dekker, New York, 1998; Newton et al., Ped. Pulm. S17, Abs. 364, 1998). […]
TMV was monitored using a lead collimated miniature Beta particle detector probe arranged to detect the radioactivity emitted from an injected aliquot of ^32P-labelled Saccharomyces cerevisiae as it was transported on the tracheal mucociliary layer of an anaesthetized guinea pig (Newton and Hall 1998) FIG. 16(a) illustrates the arrangement of the syringe and beta probe. FIG. 16(b) illustrates the counts detected by the probe as the ^32P-labelled S. cerevisiae is transported along the tracheal mucociliary layer. […]
The aim of this comparative study was to investigate the effect of hypertonic saline (14.4%×5 min) on guinea-pig tracheal mucus velocity. […] TMV was monitored immediately and every 15 minutes for 30 minutes. […]

T1 sequence (P03952 391-638 limits assumed): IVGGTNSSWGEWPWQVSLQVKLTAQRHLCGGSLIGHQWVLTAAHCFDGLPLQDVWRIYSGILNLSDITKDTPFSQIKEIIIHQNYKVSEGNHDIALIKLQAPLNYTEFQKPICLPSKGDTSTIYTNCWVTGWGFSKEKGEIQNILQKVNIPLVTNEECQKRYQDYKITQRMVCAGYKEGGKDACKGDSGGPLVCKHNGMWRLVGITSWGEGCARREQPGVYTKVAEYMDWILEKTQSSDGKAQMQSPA
T1 sequence (P03952 20-390 partner limits assumed): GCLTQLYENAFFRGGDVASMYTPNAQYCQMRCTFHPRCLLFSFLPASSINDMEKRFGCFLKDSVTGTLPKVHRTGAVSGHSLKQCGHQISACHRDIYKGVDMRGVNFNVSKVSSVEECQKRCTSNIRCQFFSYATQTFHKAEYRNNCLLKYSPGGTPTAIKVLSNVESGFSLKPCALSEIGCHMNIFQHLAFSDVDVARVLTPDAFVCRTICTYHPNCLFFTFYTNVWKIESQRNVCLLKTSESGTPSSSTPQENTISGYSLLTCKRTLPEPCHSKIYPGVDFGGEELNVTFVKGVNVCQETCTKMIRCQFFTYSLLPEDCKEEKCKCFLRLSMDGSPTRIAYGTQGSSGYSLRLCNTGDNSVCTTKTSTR

Ki ([1]; Collison nebulizer, 4.7 mg/mL, read-out: Activity (Ki), post-nebulization): 0.45 nM
Ki ([1]; Collison nebulizer, 4.7 mg/mL, read-out: Activity (Ki), pre-nebulization): 0.27 nM
Ki ([1]; Raindrop nebulizer, 1 mg/mL, read-out: Activity (Ki), post-nebulization): 0.76 nM
Ki ([1]; Raindrop nebulizer, 1 mg/mL, read-out: Activity (Ki), pre-nebulization): 0.47 nM
Ki ([1]; Raindrop nebulizer, 3 mg/mL, read-out: Activity (Ki), post-nebulization): 0.62 nM
Ki ([1]; Raindrop nebulizer, 3 mg/mL, read-out: Activity (Ki), pre-nebulization): 0.52 nM
B1: CHO Bikunin (1-170): Glycosylated placental bikunin (1-170), SEQ ID NO: 52, expressed in Chinese hamster ovary cells (Example 17) (protein, listed as Homo sapiens)
chain: ADRERSIHDFCLVSKVVGRCRASMPRWWYNVTDGSCQLFVYGGCDGNSNNYLTKEECLKKCATVTENATGDLATSRNAADSSVPSAPRRQDSEDHSSDMFNYEEYCTANAVTGPCRASFPRWYFDVERNSCNNFIYGGCRGNKNSYRSEEACMLRCFRQQENPPLPLGSK
modifications: glycosylated, CHO-expressed
stability to aerosolization ([1]; Raindrop and Collison nebulizers): stable to aerosolization and retained its anti-protease activity
inhibition of the baseline Isc ([2]; 70 nM, in 90 minutes (McAulay et al 1998)): 58%
inhibition of Na+ Isc ([2]; 1.5 ug.ml−1: 70 nM, normal HBE cells, n=5-8 (McAulay et al 1998)): 54%
TMV [3]: increased TMV; also recorded: sustained increase in TMV
